The record followed here is paper PMC7185628.

For this series, the target named is MERS-CoV spike protein (S) (MERS-CoV, UniProt K9N5Q8 18-1296). Nature of the series: EMSA. A general note: In EMSA bound probe runs differently from free probe, usually more slowly.
Chain of MERS-CoV spike protein (S) (K9N5Q8 18-1296): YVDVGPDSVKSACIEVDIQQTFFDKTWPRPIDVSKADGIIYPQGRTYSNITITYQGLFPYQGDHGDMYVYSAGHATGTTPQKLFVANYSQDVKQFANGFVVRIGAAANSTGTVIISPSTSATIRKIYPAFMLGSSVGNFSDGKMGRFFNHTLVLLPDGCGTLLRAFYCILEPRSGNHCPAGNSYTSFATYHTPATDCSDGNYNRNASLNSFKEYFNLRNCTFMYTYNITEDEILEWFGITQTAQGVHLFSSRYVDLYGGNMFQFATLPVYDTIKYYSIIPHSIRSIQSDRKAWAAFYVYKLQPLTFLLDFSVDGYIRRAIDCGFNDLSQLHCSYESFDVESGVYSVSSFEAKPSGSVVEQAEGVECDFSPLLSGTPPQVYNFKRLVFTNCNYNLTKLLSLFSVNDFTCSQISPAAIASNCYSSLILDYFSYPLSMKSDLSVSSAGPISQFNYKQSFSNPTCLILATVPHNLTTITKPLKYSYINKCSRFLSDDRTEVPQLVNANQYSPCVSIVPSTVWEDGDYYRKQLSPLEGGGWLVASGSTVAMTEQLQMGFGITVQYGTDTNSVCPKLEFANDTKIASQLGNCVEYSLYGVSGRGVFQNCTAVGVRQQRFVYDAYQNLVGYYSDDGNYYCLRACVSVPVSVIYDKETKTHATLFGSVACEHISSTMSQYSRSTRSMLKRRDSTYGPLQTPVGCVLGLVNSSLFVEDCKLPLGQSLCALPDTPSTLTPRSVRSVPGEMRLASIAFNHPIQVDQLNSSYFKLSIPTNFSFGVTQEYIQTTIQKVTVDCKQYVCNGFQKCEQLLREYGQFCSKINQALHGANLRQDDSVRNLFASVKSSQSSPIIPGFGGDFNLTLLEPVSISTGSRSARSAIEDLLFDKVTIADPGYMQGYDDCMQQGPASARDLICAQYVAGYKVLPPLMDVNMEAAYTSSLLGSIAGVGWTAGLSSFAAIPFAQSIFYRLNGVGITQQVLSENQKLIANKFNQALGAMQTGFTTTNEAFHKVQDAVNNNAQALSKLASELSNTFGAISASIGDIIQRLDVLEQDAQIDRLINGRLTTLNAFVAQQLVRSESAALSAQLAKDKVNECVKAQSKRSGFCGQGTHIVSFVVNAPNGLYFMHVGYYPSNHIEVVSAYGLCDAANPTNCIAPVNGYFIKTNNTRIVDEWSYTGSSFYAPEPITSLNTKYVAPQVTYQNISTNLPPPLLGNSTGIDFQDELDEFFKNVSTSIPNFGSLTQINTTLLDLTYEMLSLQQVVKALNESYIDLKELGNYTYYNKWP

B1: AIapt/FAM/SH-DNA 3WJ (MF-DNA) (structured_DNA)
DNA 1: GTGTGCATGGATAGCACGTAACGGTGTAGTAGATACGTGCGGGTAGGAAGAAAGGGAAATAGTTGTCCTGTTGTTGCCATGTGTATGTGGG
DNA 2: CCCACATACTTTGTTGATCC
DNA 3: GGATCAATCATGGCAA
modifications: 5' thiol on strand 3 (SH/3WJc)
Regarding B1, the binding result is reported as “no binding”.
